Experiment: label from the status in PepcDB records
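Further: failed if final PepcDB status was selected cloned or expressed and not failed if soluble or beyond.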

Row | Sequence | protein production
1 | MKKILASMAVASVAGGTVIGTAQAQTSIAPEDTQSKQASDVVTHENRVTVNVDALRVRTGPSTSNTILGLVSKEQSVPVVDETEDWYKIKYNNTEAYVNKEYATPNHIKVSTTTLRVRTGPSTSNSILGLVGEGEILQVTGEADGWYKIKYNNRDAYVSKDYVSINKSLVKSKKQKVQASRSYTVNVSSLRVRTGPSMSHPVVSVMNKGQVVQVVGEVQDWYRVKLNEGFAYINKDYVSRGTNNTANLPQSIQTESVQQNGTYIVDAAVLRVRTGPANYHPVIGGVLKGQSLQVVDIENGWYKIKYNNRTGYVSGEFVKFLKGSSTQEQTQTKEKLEQAQQPNHEQEKQEVAQQSTREQEKQEVAQQPTREQEKQEVVQQPTREQEKQEPAQNYYVKSSSLNVRSGAGMNYEVIGVVEPNQKIQVVGQQAGWYKINYNGKTGFVGMNYLSKTKVATVEEQPPSEVGTTNENTASGFIKPAAGSYTSGFEKRGGQMHYGLDIAASGTVSVSAAADGVVTRSYYSESYGNVVFISHNMNGQTYTTVYAHLNSRSVSAGQSVKQGQQIGFMGNTGQSEGQHLHFEVHKGEWNAQKSNAVNPKLYIK | failed
2 | MSVGRIHSFETCGTVDGPGIRFIVFLQGCLMRCMYCHNRDTWDTHDGKEVTVAELIEEAKSYRHFMKASGGGITCSGGEAMLQPEFVRDFFRAAQAEGIHTCLDTNGYIRKHTDVIDEVLEASDLVMLDLKQMKDDVHKEFIGVSNTRVLDFARYLHKIGQKTWIRYVIVPGYTDDEESAHLLGNFIKDMDNIEKIELLPYHKLGAHKWEALGHDYPLEGVNPPSKETMEKMVEILSQYHNNVKY | failed
3 | MLPLSLLKTAQGHPMLVELKNGETYNGHLVNCDTWMNIHLREVICTSKDGDRFWRMPECYIRGNTIKYLRVPDEVIDKVQEEKTRTDRKPPGVGRGRGRGVDDGGARGRGRGTSMGKMGGNRGAGRGRG | failed
4 | MQTLLPLLARGAVLSPFKRPRPDAAFPHSRLVLSGVRIDLARLAAYERACGFPTGADALPLTYPHVLGFPLAMRIMASRAFPLPLLGLVHTSIEVTRLREPAATGEYELAVHVEGLTPHRRGTEATVVTGARVDGSLVWESRSTYLARHRRATDARTPADARTATDARTPADARTATDARTAADARTAAPVPSAEPKPLPVVAEWRLAADVGRRYAAVSGDRNPIHLHPLTARLFGFPRAIAHGMWTVARCLAEQPADASVQLRAEFKSPVLLPGTVTYAADGGRFELRGGERVHLTGELREYRANSA | failed
5 | MTISRNYDQEIKDTAGHKYAYNFDFDVMHPFMVRAFTPFFRPGNLLELGSFKGDFTSRLQEHFNDITCVEASEEAISHAQGRLKDGITYIHSRFEDAQLPRRYDNIVLTHVLEHIDDPVALLKRINDDWLAEGGRLFLVCPNANAVSRQIAVKMGIISHNSAVTEAEFAHGHRCTYALDTLERDASRAGLQVTYRSGIFFKALANFQWDQILQTDILSKEYLDGCYQLGQQYPDLCASIFLLCEKGINQ | not failed
6 | MTSTVEFINRWQRIALLSQSLLELAQRGEWDLLLQQEVSYLQRIETVMEKQTPPGITRSIQDMVAGYIKQTLDNEQLLKGLLQQRLDELSSLIGQSTRQKSLNNAYGRLSGMLLVPDASGAS | failed
7 | MNPLDVWYNIKMNVKKQIFKGTLYAVVAGCMWGISGIFGQLFFRDYHGSPLWITSTRLTIAGIILLAMSFSRDHKRFFDVWKSKKNMPTLFLYVFGGVFSVQYFYYVAIQLSNSATATILQYTAPVFIMLYLLIFQRQVPKPKSVLFVILAMIGVFLLITDGNIKHLSISPLALVTGLLAGVAVVIYSIIPRPLLDKYGALNMTGWGMMLAGIACNIFYPVWRIDFRIEPLSIFYVLTISIVGTALAFLLLLRAFQLISPLVVSVATATEPLTSVFLSIPLFGLKLTPLELLGIVMVIVSVILLSKSEQA | failed
8 | MSIRLRKTVMSVLLGALLAGNLLPAQADTQDRLPDIGTTAGGTLSINQELAMGDFYVRQLRAGAPLINDPLLSDYINQLGNRLVKQADSVRTPFHFYLIRNDDINAFAFFGGNVVLHSALFRYADSESELASVLAHEISHVTQRHLARSMESQQRSAPLTWVGALGSILLAMANPQLGMAALSGTLAGAQQGMITFTQSNEQEADRIGIQVLQRAGFDPQAMPNFLQKLADQSRYASRPPEMLLTHPLPESRLSDARNRANQMRPTPVQSSQDFLFAKIRTFGMYGSPDRPLNDDLLVQWEKGNVREQLAAKYGRAIQLYQAKKYDEARNVLQPLLSSAPDNPWFLDMMTDIDLGQNRAAQAIARLQNVTGMQANPVLQLNLANAYVEGKQPAAAGKILYRYTYAHPDDPNGWDLLAQTAAAQGQRAEELAARAESLALNGQLDQSIRLLSNASSLVKLGSLEQARYDARIDQLRQLQQRFRQYQKS | failed
9 | YENFIIAGHKEPDGDCIGSCLAMSFFLKRKNKNCILMSAGPFKRTEIKEYEHLFTDKLKISDKINPKTTGLIILDCSNFDRVGEIAELISGFNYIIIDHHATNTEKSDTSLIMPEAPSTTYLIQSIIEEIGEKLTKEEADALFFGLCTDTGFFRHLDAGSAEVFAHASRLIEAG | failed
10 | MTKRHVSLPADAKDVRRAFVSGVDERLSAAETPDELATAVTGTLADLRGERDAYEAWRDGDDVRPAAAARLATLDPRNASLESEYYAEKDEAAFARSKPLQWLWRQFDTTPLADNVDVALPFRRMLAGHLFAGVGEDVRLFKGITMTYGHNIELGDNAVVHDGVHLDDRGELVVGARASVSNGAHLYTHDHDVVDQTDVTNYRTEIGADARVTQGALVRAGVRVGENALVGSRSVVQGDVPAHHIAVGSPAESVRVKPGWEAVAAPLDAGLEHHHHHH | not failed
11 | MTDQRWLIDKSALVRLTDSPDMEIWSNRIERGLVHITGVTRLEVGFSAECGEIARREFREPPLSAMPVEYLTPRIEDRALEVQTLLADRGHHRGPSIPDLLIAATAELSGLTVLHVDKDFDAIAALTGQKTERLTHRPPSA | not failed
12 | MAEEKIKKSLLAADDSDDEYSRGDTVSDQTELSSILDKLSLEPKTEKKKLLVLSLSGLLLHRVHKKELRKKPKNRSPDASCGPNLVYKRPFAEEFMKFCLERFEVGIWSSACELVSSLNILIVTGPRECTDSGYKTLENRYKPLFFKDLSKVFKCFKGFSASNTIFIDDEPYKALRNPDNTGLFPMSYDASNIKDNLLDPEGELCSYLEGLAKSSDVQAYIKVHSFGRPMIDSSHPDWSFYSNVSKIVS | failed
13 | MVDDRFNHFRIINRVLEKGMPVLTPVSVAIGVWMAERFSNFASAVPWLFAVISFVGALGLTLVDIRERLRRPQAMIVTLFILQILMPLIALLVGMWLFDPMTRSGLVLAFSIPTGVMSLMWVTIYHGNKSFALAVVFIHTLLSPFFIPWTLRWFIGTDIPFDVGGMVWGLLWMIVIPSLLAISATRYTPKVVPMMKDVLSPIAKLHLFLIIMINSSVAAPFIRSWDLSLLYIILTVLAIALSGYGLGYVGARLLKLDESMRISMVYTCGMRNIGAGAALAVAYFPPPVMVPIVAAILFQQVLAAALGKWMRTGRTDQSLIERGTT | failed
14 | TTQKGHRQKSFYRGVRAEKWAAWWLRCKGFHIAEIRFKTKCGEIDLIARRGNLVLIVEVKARSTLAEAMAAVSRVNERRIEAAADIWLARQKDRALLCVRFDLIAILPWRWPQHIPAFFM | failed
15 | MQLALVLSELGEYQVSNQWLLKIIHDLDETMYDCLYFLANNYACLGLFREATQYAEQYLTCESDGEFADDAADLLELLKLDRHDVSEEQEQLITMQERARHLLEQERFAEAIEALEAIVSRYPEFWSAHNNLALAYFYNGDVERAKQKLLEVLKRDPGNLHALCNALVFAYYLHDQEEVAALCETLASVYPFFREHQYKLGATFALVGRFDSAFRWLYRLYKNGFDGDGPFYYWLAYSAYHIGHESLARQVWETLTTLHPEKLEHHHHHH | failed
16 | MAPTFSPNPQNFTKKDKTKAERRKPEEGDDDHHHNASQLFLNPWQTRAARCRSLANGMLMTLHQLRGLLLSSTKLETRRKEVENLTHQGKMNLDIIKMGKFLRNPPKNGFAVYAQNKWRGVCLGRSFIYI | failed
17 | MSIPNHVSTTEVVLLELEILLTIISIGAWGGFVSYLLRKDKTEYNSSHESIKYCLTQIVISCFTSFLLSAIAIEKECSFNIVLLAAGLGGVFASPILKILGRRIKKIIEGNNSD | failed
18 | MLIDIALATYNGEKYIQEMLNSISNQTYQDFMIHLRDDGSTDNTLTLCENHKLYEQGKLKIYKDNIKGLGASKNFLKILGHCNSEYIFLCDQDDFWMKDKIQKMLDHIQKHEYKNNIKVPTLVFSDLQIVDRSLNIIADSFYRNSIKSSMCSSPFDFLLSNHIPGCAMVVNKSLLESIQPLPENFRMHDWWLAFVASFYGKIAYLDEPLIKYRQHGGNTVGVPGMNINILRQIKSILNFRDLLDKGLLHKKKMEIYIDKTCSNKILSYESNRFYDFLKGNMPFLEKNKIFKQIKFGEPLILSYLVWLFL | failed
19 | MRLDLSAKFRQVLGLAKDHASIGRAIVQNYNEKAFFDIEVAVVRATSHDDCPVDDKTMHEILFLVSNTPGSIPFLAEQISRRLAKTRDCLVAGKTLLLFHRLLRGSSRSIEQQLHIAHTSGHLQIGCSWFMMSLDSRSFVFLQNYVAYLQERVGWIINQAGKLEPVMSGGTKFSRYKEKSMDLVFHILPKCQEFIAQVLKCSPVDAWPIDNLVQAATGNILKESFQVYMTYSDGMTALVSMLFDLSRPARDLACGMLRKASQQIQDLRILYDKCRGFAGMKSLDYPSVQAISMDHIVALEECSSYGGKRGFSLSTNLRDAITCNELKQEQHSASFSSTSPFSLPVETKISMVWVVFDNEDGEESDKQTEKAYER | failed
20 | MEEPRRLGGRYELGPVLGRGGMAEVYHAHDTRLGRQVAVKTLRADLARDPSFQARFRREAQSAASLNHPAIVAVYDTGEDYIDNVSIPYIVMEYVDGSTLRELLHSGRKLLPERTLEMTIGILQALEYSHRAGIVHRDIKPANVMLTRNGQVKVMDFGIARAMGDSGMTMTQTAAVIGTAQYLSPEQAKGEQVDARSDLYSTGCLLYELLTVRPPFVGDSPVAVAYQHVREEPQAPSVFDPEITPEMDAIVLKALVKDPDYRYQSADEMRVDIEACLDGQPVGATAAMGAMAAGGYGAYPDDQPTTALRSDGGGGATTMLPPMNPDDGGYGYDERPDRRRQQPRKKNTSTIFLVLAGVLVLVGAILIGKYAFSGDGGPGNDKVPVPAFIGLSKADAQQQADNIDLVLTFKQQECEDQPKGNICAQDPKQGTDVDKESTVNLVVSTGAPKVAVPNVIDKNIDEAKKQLEDKGFEVETKQTESSQDEGTILSQNPDPGKELEKGSTVTLEVAKAEEKATVPDVVGRTCDEAKAQVESGGDLTAVCTDQPTNDPNQVGKVISTTPQSSTQVDPGSKVTIVVGKAVEKTKVPEVRGKTLAEARQILQQSGFTNVQVAQGSPGDDNAKVFASNPQPGSEVDDPAATPITLMTVPGDGGNGNGGNGNGGAIAGLPGFGD | failed
21 | MLASLEARYPGLAFAWPRPGVLEITFRGEKLXAMPPALHRGLARVWRDLEAVEGVRAVLLRGEGGVFSAGGSFGLIEEMRASHEALLRVFWEARDLVLGPLXFPRPVVAAVEKVAVGAGLALALAADIAVVGKGTRLLDGHLRLGVAAGDHAVLLWPLLVGMAKAKYHLLLXEPLTGEEAERLGLVALAVEDEKVYEKALEVAERLAQGPKEALHHTKHALXHWYRSFLPHFELSLALEFLGFSGKELEEGLKALKEKRPPEFP | not failed
